What all share (experiment): cell-based or functional assay
In assay [1] the target is spike (S) protein of live SARS-CoV-2 (SARS-CoV-2) (UniProt P0DTC2).
In assay [2] the target is spike protein of live SARS-CoV-2 (SARS-CoV-2) (UniProt P0DTC2).
Assay [3] concerns the target full length S protein of SARS-CoV-2 (on pseudovirus) (SARS-CoV-2) (UniProt P0DTC2).
The target of assay [4] is spike protein on live SARS-CoV-2 (SARS-CoV-2) (UniProt P0DTC2).

For the substance P2C-1F11 (antibody), in assay [1], the Live virus IC50 was determined as 0.0323 µg/mL and the Live virus IC80 was found to be 0.178 µg/mL. In assay [2], the Live virus IC50 was found to be 0.0323 µg/mL and the Live virus IC80 was found to be 0.178 µg/mL. In assay [3], this substance displayed a Pseudovirus IC50 of 0.0286 µg/mL and a Pseudovirus IC80 of 0.119 µg/mL. In assay [4], this substance had an IC50, live SARS-CoV-2 focus reduction neutralization test (FRNT) of 0.03 µg/mL.

The values are drawn from patent US20210292392A1.
